According to patent US7740850B2, “PDGFRβ-specific antibodies” (ImClone, LLC, priority 2007, dated 2010):

T1: m5β (Mus musculus, UniProt P05622)
T1 sequence (P05622 32-531 limits assumed): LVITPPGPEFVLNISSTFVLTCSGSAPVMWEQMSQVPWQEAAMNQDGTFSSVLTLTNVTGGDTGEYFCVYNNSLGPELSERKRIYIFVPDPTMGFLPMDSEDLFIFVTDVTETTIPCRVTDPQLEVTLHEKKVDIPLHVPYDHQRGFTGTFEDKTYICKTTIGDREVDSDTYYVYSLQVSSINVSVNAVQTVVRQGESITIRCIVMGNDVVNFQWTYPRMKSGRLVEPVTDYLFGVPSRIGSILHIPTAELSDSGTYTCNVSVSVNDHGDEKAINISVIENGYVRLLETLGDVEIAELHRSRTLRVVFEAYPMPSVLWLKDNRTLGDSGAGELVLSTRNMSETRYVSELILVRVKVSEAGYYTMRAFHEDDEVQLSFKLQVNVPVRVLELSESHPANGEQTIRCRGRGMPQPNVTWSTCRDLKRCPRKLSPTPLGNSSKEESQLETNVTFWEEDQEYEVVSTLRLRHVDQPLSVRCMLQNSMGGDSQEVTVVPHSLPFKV


Assays:
[1] = tested on: 2β3α; assay: Epitope mapping, PDGFRβ/α chimera; format: binding; conditions: ✓ / X, key not given
Procedure: (§1) Various chimeric constructs of PDGFRβ and PDGFRα were first made by domain swapping, starting from N-terminus to C-terminus with PDGFRβ domain(s) replacing PDGFRα domain(s). The PDGFRβ/α chimera were tested for the ability of 2C5 binding. Shorter versions of PDGFRβ, including D1D2, D2D3 and D1D2D3, were then made to confirm the 2C5 binding domains on PDGFRβ.

[2] = tested on: β1-3; assay: Epitope mapping, shorter version of PDGFRβ (D1D2D3); format: binding; conditions: ✓ / X, key not given
Procedure: as §1, with “2C5 binds to domain 1 (D1) and domain 2 (D2) of PDGFRβ. Various” for “Various”

[3] = tested on: OV-CAR-5 ovarian carcinoma xenograft; assay: Subcutaneous tumor xenograft model; format: in vivo, mouse; conditions: for Tumor Volume T/C %: OVCAR-5 xenograft, monotherapy
Procedure: (§2) Six xenograft models, SK-OV-3, OV-CAR-8, BxPC-3, OV-CAR-5, Caki-1 and NCI-H460 (A to F, respectively) were used to examine the effects of 1B3 on xenograft tumors in athymic nude mice. Mice with established tumors (˜250-300 mm^3) were randomly grouped and treated with 1B3, normal human IgG, or saline by intraperitoneal injection twice weekly (except for BxPC-3 model where the mice were treated three times a week) at the dose indicated. Tumor volumes were measured twice a week and are presented as mean±SEM. *1 indicates the loss of one mouse due to severe illness. 1B3 binds to mouse, but not human, PDGFRβ. Accordingly, the observed responses to treatment result from inhibition of stimulation of host cells.
(§3) Antitumor activity of anti-mPDGFRβ antibody in tumor xenograft models. Six human xenograft tumor models, including three ovarian carcinoma (SK-OV-3, OV-CAR-5 and OV-CAR-8), one pancreatic carcinoma (BxPC3), one lung carcinoma (NCI-H460), and one kidney carcinoma (Caki-1), were used to assess the antitumor activity of 1B3 in vivo. Athymic (nu/nu) mice (female, 7-8 weeks of age) were housed for 7-10 days before xenograft implantation. Each mouse was injected subcutaneously with 3-10×10^6 cells of SK-OV-3, OVCAR-5, OVCAR-8, Caki-1, BxPC3 or NCI-H460 tumor cells. When tumors reached approximately 250-300 mm^3, mice were randomized into groups of 10 to 12 animals each and treated by intraperitoneal injection, 2 to 3 times per week, with 1B3, DC101, or 1B3 in combination with DC101. Human IgG and/or USP saline were used as control groups. Tumor sizes and mouse body weight were measured twice a week. Tumor volume was calculated using the formula: π/6×(length×width^2), where length=longest diameter and width=diameter perpendicular to length. The ratio of average tumor volume in the treatment group versus that in the control group (T/C %) was calculated. Statistic analysis was performed by Student's t-test.
(§4) To study the antitumor effects of monotherapy with an anti-PDGFRβ antibody, mice were treated with 1B3, normal human IgG, or saline twice weekly by intraperitoneal injections. In SK-OV-3 model, tumor-bearing mice were given 1B3 at 6, 20, or 60 mg/kg dose.
(§5) Antitumor activity of anti-PDGFRβ antibody in tumor xenograft models. The five human xenograft tumor models described above (OVCAR-5 and OVCAR-8, BxPC3, NCI-H460, and Caki-1) were used to assess the antitumor activity of 2C5 in vivo. 2C5 which binds to and inhibits human PDGFRβ receptors of the tumor and mouse receptors of the vasculature was compared to 1B3 which bound only to mouse vasculature. […] (FIG. 9; Table 2).

[4] = tested on: OV-CAR-8 ovarian carcinoma xenograft; assay: Subcutaneous tumor xenograft model; format: in vivo, mouse; conditions: for Tumor Volume T/C %: OVCAR-8 xenograft, monotherapy
Procedure: as §2, §3, §4, §5

[5] = target: T1, m5β; assay: Epitope mapping; format: binding; conditions: ✓ / X, key not given
Procedure: as §1, with “2C5 binds to domain 1 (D1) and domain 2 (D2) of PDGFRβ. Various” for “Various”

[6] = tested on: WS-1 cells; assay: PDGF-BB-stimulated cell migration, two-chamber technique; format: cell-based; conditions: antibody 30 μg/ml, PDGF-BB 100 ng/ml, 4 hours
Procedure: (§6) 2C5 inhibits PDGF-BB-stimulated cell migration in a cell-based migration assay. Two-chamber technique was used to determine the inhibitory ability of 2C5 in cell migration with NCI-H460, OVCAR8, WS-1 and U-118 cell lines. Collagen (100 μg/ml) was added to the up chamber (100 μl) and the lower chamber (150 μl) and incubated at 37° C. for 1 hour. After washing the chambers twice with PBS, 100 μl of starved cells (estimated 0.5-10×10^6/ml in serum-free medium) were added to the up chamber and 150 μl of serum-free medium was added to the lower chamber and then incubated at 37° C. for 4 hours. […] In 2C5 wells, 2C5 were added into the up chamber at a final concentration of 30 μg/ml. Non-migrated cells in the up chamber were scraped from the membrane. After washing three times with PBS, migrated cells on the membrane of the lower chamber side were fixed with 4% formalin and stained with Hoechst (4 μg/ml). The results were captured and cells were counted under fluorescence microscopy.

[7] = tested on: U-118 cells; assay: as above; format: cell-based; conditions: antibody 30 μg/ml, PDGF-BB 100 ng/ml, 4 hours
Procedure: as §6

[8] = tested on: SK-OV-3 ovarian carcinoma xenograft; assay: Subcutaneous tumor xenograft model; format: in vivo, mouse
Procedure: as §2
Antitumor activity of anti-mPDGFRβ antibody in tumor xenograft models. Six human xenograft tumor models, including three ovarian carcinoma (SK-OV-3, OV-CAR-5 and OV-CAR-8), one pancreatic carcinoma (BxPC3), one lung carcinoma (NCI-H460), and one kidney carcinoma (Caki-1), were used to assess the antitumor activity of 1B3 in vivo. […] Tumor sizes and mouse body weight were measured twice a week. Tumor volume was calculated using the formula: π/6×(length×width^2), where length=longest diameter and width=diameter perpendicular to length. The ratio of average tumor volume in the treatment group versus that in the control group (T/C %) was calculated. […]

Molecule | binding to 2β3α [1] | binding to β1-3 [2] | Tumor Volume T/C % [3] [%] | Tumor Volume T/C % [4] [%] | binding to m5β [5] | inhibition of PDGF-BB-stimulated cell migration [6] | inhibition of PDGF-BB-stimulated cell migration [7] | antitumor activity ([3]; OV-CAR-5, 40 mg/kg three times per week or 60 mg/kg twice weekly) | tumor growth inhibition ([4]; OV-CAR-8, 60 mg/kg i.p. twice weekly) | tumor growth inhibition ([8]; 60 mg/kg i.p. twice weekly) | tumor growth inhibition ([8]; two lower doses (6, 20 mg/kg) i.p. twice weekly)
2C5: PDGFRβ-specific human antibody binding both human and murine PDGFRβ; SEQ ID NOS in Table 1 (antibody, listed as Homo sapiens, V domains shown) VH: QVQLVQSGAEVKKPGSSVKVSCKASGGTFSSYAISWVRQAPGQGLEWMGRIIPILGIANYAQKFQGRVTITADKSTSTAYMELSSLRSEDTAVYYCARDMGSRNYYYFYWGQGTLVTVSS VL: EIVLTQSPATLSLSPGERATLSCRASQSVGRYLAWYQQKPGQAPRLLIYGASNRATGIPARFSGSGSGTDFTLTISSLEPEDFAVYYCQQRSNWPLTFGGGTKVEIK | ✓ | ✓ | 84 | 39 | ✓ | inhibited PDGF-BB-stimulated cell migration completely | inhibited PDGF-BB-stimulated cell migration completely |  |  |  | 
1B3: human anti-mouse PDGFRβ antibody from Fab phage display library, human κ/γ1 constant regions; SEQ ID NOS in Table 1 (antibody, listed as Homo sapiens, V domains shown, human kappa/gamma1 constant regions) VH: QVQLQESGGGLVKPGGSLRLSCAASGFTFSSYSMNWVRQAPGKGLEWVSSISSSSSYIYYADSVKGRFTISRDNSKNTLYLQMNSLRAEDTAVYYCAKGGRPLLVFDFWGQGTLVTVS VL: EIVMTQSPGTLSLSPGERATLSCRASQSVSSSYLAWYQQKPGQAPRLLIYDASKRATGIPARFSGSGSGTDFTLTISTLESEDSAVYYCQQRGYWPPITFGQGTRLEIKR |  |  | 92 | 43 |  |  |  | failed to show any antitumor activity | almost completely blocked the growth | completely blocked the tumor growth for up to 29 days | No tumor growth inhibition was observed
